In PMC10786891, “Massively parallel profiling of RNA-targeting CRISPR-Cas13d”:

T1: EsCas13d, nuclease-dead (Eubacterium siraeum, UniProt B0MS50, R295A;H300A;R849A;H854A)
T1 sequence: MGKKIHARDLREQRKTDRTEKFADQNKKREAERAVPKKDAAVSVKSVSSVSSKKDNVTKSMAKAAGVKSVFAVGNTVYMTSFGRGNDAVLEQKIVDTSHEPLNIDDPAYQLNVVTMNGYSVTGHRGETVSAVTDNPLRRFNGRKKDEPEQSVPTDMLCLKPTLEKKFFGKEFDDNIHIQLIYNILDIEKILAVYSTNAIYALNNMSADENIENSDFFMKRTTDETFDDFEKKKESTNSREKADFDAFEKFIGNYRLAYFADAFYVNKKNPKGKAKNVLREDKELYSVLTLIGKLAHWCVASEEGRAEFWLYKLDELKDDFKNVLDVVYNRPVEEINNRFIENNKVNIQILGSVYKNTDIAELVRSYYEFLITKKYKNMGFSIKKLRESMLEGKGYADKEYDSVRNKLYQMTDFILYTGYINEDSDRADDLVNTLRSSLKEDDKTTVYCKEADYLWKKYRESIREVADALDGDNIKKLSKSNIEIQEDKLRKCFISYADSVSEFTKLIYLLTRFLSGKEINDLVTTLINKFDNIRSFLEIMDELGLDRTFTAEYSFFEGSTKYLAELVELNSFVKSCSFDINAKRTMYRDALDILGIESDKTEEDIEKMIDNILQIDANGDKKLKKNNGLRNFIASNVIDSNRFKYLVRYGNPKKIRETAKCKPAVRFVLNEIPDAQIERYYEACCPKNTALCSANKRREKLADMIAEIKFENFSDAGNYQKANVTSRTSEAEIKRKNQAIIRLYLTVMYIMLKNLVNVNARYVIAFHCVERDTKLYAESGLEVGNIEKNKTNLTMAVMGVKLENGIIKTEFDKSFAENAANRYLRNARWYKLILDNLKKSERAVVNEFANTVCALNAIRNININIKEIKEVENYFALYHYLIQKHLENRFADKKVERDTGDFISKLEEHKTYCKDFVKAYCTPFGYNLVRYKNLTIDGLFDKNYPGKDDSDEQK


Target: T1, EsCas13d, nuclease-dead
Assay: crRNA (strand 1, pre-loaded); Mg2+; 40 mM Tris-HCl pH 7.5, 150 mM NaCl, 6 mM MgCl2, 1 mM DTT, 0.1% Tween-20, 0.2 mg/ml BSA; 25 C; 10 min per concentration, then washed
Settings: tags: His6-TwinStrep-SUMO cleaved; N-terminal SNAP kept (SNAP-Surface 488); label: 3' end held by stalled T7 RNA polymerase

Binder	Kd
target 1 A9G,A20U (mixed) RNA 1: CACCCGUGCAAAAAUGCAGGGGUCUAAAACUGAGCGGAUAACCUCUCUAUGG RNA 2: GGGAAUGGAUCCACAUCUACGAAUUCGUACCUUAGAGAGGUUGUCCGCUCACCGAGAUCGGAAGAGCACACGU	48 ± 8 nM
target 1 C6G,G12A (mixed) RNA 1: CACCCGUGCAAAAAUGCAGGGGUCUAAAACUGAGCGGAUAACCUCUCUAUGG RNA 2: GGGAAUGGAUCCACAUCUACGAAUUCGUACCAUAGAGAGAUUAUCGGCUCACCGAGAUCGGAAGAGCACACGU	10.8 ± 0.7 nM
target 1 complement block 2-4 (mixed) RNA 1: CACCCGUGCAAAAAUGCAGGGGUCUAAAACUGAGCGGAUAACCUCUCUAUGG RNA 2: GGGAAUGGAUCCACAUCUACGAAUUCGUACCAUAGAGAGGUUAUCCGGAGACCGAGAUCGGAAGAGCACACGU	11 ± 0.5 nM
target 1 insC 3' of 9,insC 3' of 3 (mixed) RNA 1: CACCCGUGCAAAAAUGCAGGGGUCUAAAACUGAGCGGAUAACCUCUCUAUGG RNA 2: GGGAAUGGAUCCACAUCUACGAAUUCGUACCAUAGAGAGGUUACUCCGCUCCACCGAGAUCGGAAGAGCACACGU	11 ± 1 nM
target 1 insC 3' of 17,insA 3' of 13 (mixed) RNA 1: CACCCGUGCAAAAAUGCAGGGGUCUAAAACUGAGCGGAUAACCUCUCUAUGG RNA 2: GGGAAUGGAUCCACAUCUACGAAUUCGUACCAUAGCAGAGAGUUAUCCGCUCACCGAGAUCGGAAGAGCACACGU	22.3 ± 2.4 nM
target 1 G5U,G17C (mixed) RNA 1: CACCCGUGCAAAAAUGCAGGGGUCUAAAACUGAGCGGAUAACCUCUCUAUGG RNA 2: GGGAAUGGAUCCACAUCUACGAAUUCGUACCAUACAGAGGUUAUCCUCUCACCGAGAUCGGAAGAGCACACGU	80 ± 40 nM
target 1 G15A,G17C (mixed) RNA 1: CACCCGUGCAAAAAUGCAGGGGUCUAAAACUGAGCGGAUAACCUCUCUAUGG RNA 2: GGGAAUGGAUCCACAUCUACGAAUUCGUACCAUACAAAGGUUAUCCGCUCACCGAGAUCGGAAGAGCACACGU	62 ± 16 nM
target 1 insA 3' of 10,insA 3' of 4 (mixed) RNA 1: CACCCGUGCAAAAAUGCAGGGGUCUAAAACUGAGCGGAUAACCUCUCUAUGG RNA 2: GGGAAUGGAUCCACAUCUACGAAUUCGUACCAUAGAGAGGUUAAUCCGCAUCACCGAGAUCGGAAGAGCACACGU	6.5 ± 0.4 nM
target 1 C2U,G17C (mixed) RNA 1: CACCCGUGCAAAAAUGCAGGGGUCUAAAACUGAGCGGAUAACCUCUCUAUGG RNA 2: GGGAAUGGAUCCACAUCUACGAAUUCGUACCAUACAGAGGUUAUCCGCUUACCGAGAUCGGAAGAGCACACGU	42 ± 5 nM
target 1 A1U,A16G (mixed) RNA 1: CACCCGUGCAAAAAUGCAGGGGUCUAAAACUGAGCGGAUAACCUCUCUAUGG RNA 2: GGGAAUGGAUCCACAUCUACGAAUUCGUACCAUAGGGAGGUUAUCCGCUCUCCGAGAUCGGAAGAGCACACGU	33 ± 7 nM
target 1 del8,del13 (mixed) RNA 1: CACCCGUGCAAAAAUGCAGGGGUCUAAAACUGAGCGGAUAACCUCUCUAUGG RNA 2: GGGAAUGGAUCCACAUCUACGAAUUCGUACCAUAGAGAGUUACCGCUCACCGAGAUCGGAAGAGCACACGU	16.1 ± 0.8 nM
target 1 C2U,G5U (mixed) RNA 1: CACCCGUGCAAAAAUGCAGGGGUCUAAAACUGAGCGGAUAACCUCUCUAUGG RNA 2: GGGAAUGGAUCCACAUCUACGAAUUCGUACCAUAGAGAGGUUAUCCUCUUACCGAGAUCGGAAGAGCACACGU	23.2 ± 1 nM
target 1 insC 3' of 22,insA 3' of 3 (mixed) RNA 1: CACCCGUGCAAAAAUGCAGGGGUCUAAAACUGAGCGGAUAACCUCUCUAUGG RNA 2: GGGAAUGGAUCCACAUCUACGAAUUCGUACCCAUAGAGAGGUUAUCCGCUACACCGAGAUCGGAAGAGCACACGU	11.8 ± 0.5 nM
target 1 insG 3' of 10,insU 3' of 1 (mixed) RNA 1: CACCCGUGCAAAAAUGCAGGGGUCUAAAACUGAGCGGAUAACCUCUCUAUGG RNA 2: GGGAAUGGAUCCACAUCUACGAAUUCGUACCAUAGAGAGGUUGAUCCGCUCAUCCGAGAUCGGAAGAGCACACGU	33 ± 5 nM
target 1 C2G,U11G (mixed) RNA 1: CACCCGUGCAAAAAUGCAGGGGUCUAAAACUGAGCGGAUAACCUCUCUAUGG RNA 2: GGGAAUGGAUCCACAUCUACGAAUUCGUACCAUAGAGAGGGUAUCCGCUGACCGAGAUCGGAAGAGCACACGU	11 ± 0.6 nM
target 1 insG 3' of 2,insU 3' of 2 (mixed) RNA 1: CACCCGUGCAAAAAUGCAGGGGUCUAAAACUGAGCGGAUAACCUCUCUAUGG RNA 2: GGGAAUGGAUCCACAUCUACGAAUUCGUACCAUAGAGAGGUUAUCCGCUCGUACCGAGAUCGGAAGAGCACACGU	8.9 ± 0.9 nM
target 1 insC 3' of 20,insA 3' of 2 (mixed) RNA 1: CACCCGUGCAAAAAUGCAGGGGUCUAAAACUGAGCGGAUAACCUCUCUAUGG RNA 2: GGGAAUGGAUCCACAUCUACGAAUUCGUACCACUAGAGAGGUUAUCCGCUCAACCGAGAUCGGAAGAGCACACGU	10 ± 0.6 nM
target 1 insG 3' of 18,insU 3' of 7 (mixed) RNA 1: CACCCGUGCAAAAAUGCAGGGGUCUAAAACUGAGCGGAUAACCUCUCUAUGG RNA 2: GGGAAUGGAUCCACAUCUACGAAUUCGUACCAUAGGAGAGGUUAUCUCGCUCACCGAGAUCGGAAGAGCACACGU	67 ± 8 nM
target 1 del5,del9 (mixed) RNA 1: CACCCGUGCAAAAAUGCAGGGGUCUAAAACUGAGCGGAUAACCUCUCUAUGG RNA 2: GGGAAUGGAUCCACAUCUACGAAUUCGUACCAUAGAGAGGUUUCCCUCACCGAGAUCGGAAGAGCACACGU	15.9 ± 0.6 nM
target 1 insG 3' of 16,insC 3' of 13 (mixed) RNA 1: CACCCGUGCAAAAAUGCAGGGGUCUAAAACUGAGCGGAUAACCUCUCUAUGG RNA 2: GGGAAUGGAUCCACAUCUACGAAUUCGUACCAUAGAGGAGCGUUAUCCGCUCACCGAGAUCGGAAGAGCACACGU	34 ± 4 nM
target 1 insU 3' of 2,insU 3' of 2 (mixed) RNA 1: CACCCGUGCAAAAAUGCAGGGGUCUAAAACUGAGCGGAUAACCUCUCUAUGG RNA 2: GGGAAUGGAUCCACAUCUACGAAUUCGUACCAUAGAGAGGUUAUCCGCUCUUACCGAGAUCGGAAGAGCACACGU	9.6 ± 0.7 nM
target 1 insU 3' of 6,insA 3' of 5 (mixed) RNA 1: CACCCGUGCAAAAAUGCAGGGGUCUAAAACUGAGCGGAUAACCUCUCUAUGG RNA 2: GGGAAUGGAUCCACAUCUACGAAUUCGUACCAUAGAGAGGUUAUCCUGACUCACCGAGAUCGGAAGAGCACACGU	24 ± 2 nM
target 1 insA 3' of 21,insC 3' of 3 (mixed) RNA 1: CACCCGUGCAAAAAUGCAGGGGUCUAAAACUGAGCGGAUAACCUCUCUAUGG RNA 2: GGGAAUGGAUCCACAUCUACGAAUUCGUACCAAUAGAGAGGUUAUCCGCUCCACCGAGAUCGGAAGAGCACACGU	13.2 ± 0.7 nM
target 1 insG 3' of 21,insA 3' of 5 (mixed) RNA 1: CACCCGUGCAAAAAUGCAGGGGUCUAAAACUGAGCGGAUAACCUCUCUAUGG RNA 2: GGGAAUGGAUCCACAUCUACGAAUUCGUACCGAUAGAGAGGUUAUCCGACUCACCGAGAUCGGAAGAGCACACGU	37 ± 9 nM
